Earlier results, collected in publication PMC5414288, “^99mTc-radiolabeled GE11-modified peptide for ovarian tumor targeting” (DARU Journal of Pharmaceutical Sciences, 2017).

Target: EGFR (Homo sapiens) (UniProt P00533)

Substance: GE11
- Kd: 22 nM
